Consider 61 molecules from US20190352359A1 (IMMATICS BIOTECHNOLOGIES, published 2019).

This test addresses T1, HLA-A*24.
T1 construct: Monomers captured on streptavidin plates; also called peptide-receptive MHC molecules; MHC complexes
Briefly: UV peptide-exchange ELISA (anti-b2m); yield grade ++++ = >75%. The text has this:
Candidate peptides for T cell based therapies according to the present invention were further tested for their MHC binding capacity (affinity). The individual peptide-MHC complexes were produced by UV-ligand exchange, where a UV-sensitive peptide is cleaved upon UV-irradiation, and exchanged with the peptide of interest as analyzed. Only peptide candidates that can effectively bind and stabilize the peptide-receptive MHC molecules prevent dissociation of the MHC complexes. To determine the yield of the exchange reaction, an ELISA was performed based on the detection of the light chain (p2m) of stabilized MHC complexes. The assay was performed as generally described in Rodenko et al. (Rodenko et al., 2006)
96 well MAXISorp plates (NUNC) were coated over night with 2 ug/ml streptavidin in PBS at room temperature, washed 4× and blocked for 1 h at 37° C. in 2% BSA containing blocking buffer. Refolded HLA-A*02:01/MLA-001 monomers served as standards, covering the range of 15-500 ng/ml. Peptide-MHC monomers of the UV-exchange reaction were diluted 100-fold in blocking buffer. Samples were incubated for 1 h at 37° C., washed four times, incubated with 2 ug/ml HRP conjugated anti-β2m for 1h at 37° C., washed again and detected with TMB solution that is stopped with […]. Absorption was measured at 450 nm. Candidate peptides that show a high exchange yield (preferably higher than 50%, most preferred higher than 75%) are generally preferred for a generation and production of antibodies or fragments thereof, and/or T cell receptors or fragments thereof, as they show sufficient avidity to the MHC molecules and prevent dissociation of the MHC complexes.
(ELISA stands for enzyme-linked immunosorbent assay.)
For IYVSLAHVL (also called IYVSLAHVL) [ANO7-002], the peptide exchange yield is above 75%.

With KIYTTVLFANI (also called KIYTTVLFANI) [NPFFR2-003], the peptide exchange yield is above 75%.

The molecule IYPEAIATL (also called IYPEAIATL) [SLC6A3-002] returned a peptide exchange yield above 75%.

RYFIAAEKILW (also called RYFIAAEKILW) [HEPHL-005] displayed a peptide exchange yield above 75%.

LYAPTILLW (also called LYAPTILLW) [AFP-001] had a peptide exchange yield above 75%.

The molecule AWSPPATLF (also called AWSPPATLF) [LOXL4-002] showed a peptide exchange yield above 75%.

In the case of RWLSKPSLL (also called RWLSKPSLL) [KBTBD8-004], the peptide exchange yield is above 75%.

Turning to TYIDTRTVFL (also called TYIDTRTVFL) [CAPN6-005], the peptide exchange yield was above 75%.

On to FFLQESPVF (also called FFLQESPVF) [ABCC11-004], for which the peptide exchange yield is above 75%.

IFIPATILL (also called IFIPATILL) [ACSM1-001] showed a peptide exchange yield above 75%.

Molecule LYYGSILYI (also called LYYGSILYI) [OR9-001] came in with a peptide exchange yield above 75%.

Molecule VYLDEKQHAW (also called VYLDEKQHAW) [TCL1A-005] yielded a peptide exchange yield above 75%.

Turning to PYSIYPHGVTF (also called PYSIYPHGVTF) [F5-006], the peptide exchange yield was above 75%.

As to IWPGFTTSI (also called IWPGFTTSI) [PIWIL1-003], the peptide exchange yield is above 75%.

LYTVPFNLI (also called LYTVPFNLI) [SLC45A2-006]: the peptide exchange yield was above 75%.

For the molecule RYLSVCERL (also called RYLSVCERL) [NKX-001], the peptide exchange yield is above 75%.

Molecule VYISDVSVY (also called VYISDVSVY) [CLECL-003] returned a peptide exchange yield above 75%.

DYLLSWLLF (also called DYLLSWLLF) [CNR2-003] displayed a peptide exchange yield above 75%.

Molecule HYHAESFLF (also called HYHAESFLF) [HEPHL-003] yielded a peptide exchange yield above 75%.

Take IFLPFFIVF (also called IFLPFFIVF) [ADAM18-001]: the peptide exchange yield is above 75%.

Molecule KYVDINTFRL (also called KYVDINTFRL) [MMP12-018] came in with a peptide exchange yield above 75%.

TQAGEYLLF (also called TQAGEYLLF) [FLT3-012]: the peptide exchange yield was above 75%.

The molecule TYATHVTEI (also called TYATHVTEI) [CCR8-004] displayed a peptide exchange yield above 75%.

PYWWNANMVF (also called PYWWNANMVF) [NOTU-001] gave a peptide exchange yield above 75%.

Turning to YYIATMALI (also called YYIATMALI) [CHRNA9-004], the peptide exchange yield is above 75%.

Molecule ISWEVVHTVF (also called ISWEVVHTVF) [HMCN1-008] gave a peptide exchange yield above 75%.

KYLITTFSL (also called KYLITTFSL) [NLRP2-008] displayed a peptide exchange yield above 75%.

The molecule ALMSAFYTF (also called ALMSAFYTF) [MMP11-020] registered a peptide exchange yield above 75%.

On to IYKFIMDRF (also called IYKFIMDRF) [FOXB1-001], for which the peptide exchange yield is above 75%.

With FYFYNCSSL (also called FYFYNCSSL) [ERV-001], the peptide exchange yield was above 75%.

VYSNPDLFW (also called VYSNPDLFW) [TRDV3-002]: the peptide exchange yield was above 75%.

Regarding VYAFMNENF (also called VYAFMNENF) [QRFPR-004], the peptide exchange yield is above 75%.

The molecule IYNKTKMAF (also called IYNKTKMAF) [SLCO6-001] had a peptide exchange yield above 75%.

As for SYTPLLSYI (also called SYTPLLSYI) [C1orf94-002], the peptide exchange yield was above 75%.

FFYVTETTF (also called FFYVTETTF) [TERT-003] came in with a peptide exchange yield above 75%.

As for AYLQFLSVL (also called AYLQFLSVL) [GREB-002], the peptide exchange yield was above 75%.

In the case of VLPLHFLPF (also called VLPLHFLPF) [HBG2-001], the peptide exchange yield is above 75%.

QRYGFSSVGF (also called QRYGFSSVGF) [RHBG-001]: the peptide exchange yield is above 75%.

Consider AFQNVISSF (also called AFQNVISSF) [NMUR2-003], for which the peptide exchange yield was above 75%.

Take YYIGIVEEYW (also called YYIGIVEEYW) [HEPHL-008]: the peptide exchange yield is above 75%.

The molecule VFPSVDVSF (also called VFPSVDVSF) [PTP-043] gave a peptide exchange yield above 75%.

In turn, AYPQIRCTW (also called AYPQIRCTW) [FLT3-009] came in with a peptide exchange yield above 75%.

IYTFSNVTF (also called IYTFSNVTF) [BTN1-003] yielded a peptide exchange yield above 75%.

In turn, LYPDSVFGRLF (also called LYPDSVFGRLF) [SMC1B-003] returned a peptide exchange yield above 75%.

Regarding AYAPRGSIYKF (also called AYAPRGSIYKF) [HHIPL2-001], the peptide exchange yield is above 75%.

LSSPVHLDF (also called LSSPVHLDF) [FCRL5-007] yielded a peptide exchange yield above 75%.

With QYLQQQAKL (also called QYLQQQAKL) [FOXB1-002], the peptide exchange yield was above 75%.

LYMSVEDFI (also called LYMSVEDFI) [STK31-001] gave a peptide exchange yield above 75%.

QKYYITGEAEGF (also called QKYYITGEAEGF) [ESR1-009] yielded a peptide exchange yield above 75%.

CYSFIHLSF (also called CYSFIHLSF) [NLR-006] had a peptide exchange yield above 75%.

On to MYDLHHLYL (also called MYDLHHLYL) [EPY-001], for which the peptide exchange yield is above 75%.

TYFFVDNQYW (also called TYFFVDNQYW) [MMP12-020] yielded a peptide exchange yield above 75%.

IYSSQLPSF (also called IYSSQLPSF) [TFEC-004] came in with a peptide exchange yield above 75%.

LYICKVELM (also called LYICKVELM) [CTL-001]: the peptide exchange yield is above 75%.

Molecule IFPKTGLLII (also called IFPKTGLLII) [MAGEA4-008] gave a peptide exchange yield above 75%.

Molecule MLPEASLLI (also called MLPEASLLI) [NLRP4-005] registered a peptide exchange yield above 75%.

Regarding FYNRLTKLF (also called FYNRLTKLF) [OFCC-001], the peptide exchange yield was above 75%.

VYSDRQIYLL (also called VYSDRQIYLL) [ABCC11-006] showed a peptide exchange yield above 75%.

As to TYSTNRTMI (also called TYSTNRTMI) [FLT3-013], the peptide exchange yield was above 75%.

Regarding IYNEHGIQQI (also called IYNEHGIQQI) [COL11A1-003], the peptide exchange yield is above 75%.

Molecule MYTIVTPML (also called MYTIVTPML) [OR1N1-001] yielded a peptide exchange yield above 75%.
